Assay results from the supplement of paper PMC10065799, “High-throughput profiling of sequence recognition by tyrosine kinases and SH2 domains using bacterial peptide display” (eLife, 2023).

Target: FGFR3 (UniProt P22607)
Experiment: phosphorylation enrichment, bacterial display (enrichment ratio); higher = better substrate or ligand; peptides without Tyr show the background
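Also: 11-residue human phosphosite peptides and single-mutation variants displayed on the E. coli surface, counted by deep sequencing, each peptide's frequency after selection divided by its frequency in the unselected input library; frequency after pTyr selection over input frequency; kinase dosed for 20-30% of maximal phosphorylation in three min.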

FGFR3, sequence (P22607 whole entry, looked up): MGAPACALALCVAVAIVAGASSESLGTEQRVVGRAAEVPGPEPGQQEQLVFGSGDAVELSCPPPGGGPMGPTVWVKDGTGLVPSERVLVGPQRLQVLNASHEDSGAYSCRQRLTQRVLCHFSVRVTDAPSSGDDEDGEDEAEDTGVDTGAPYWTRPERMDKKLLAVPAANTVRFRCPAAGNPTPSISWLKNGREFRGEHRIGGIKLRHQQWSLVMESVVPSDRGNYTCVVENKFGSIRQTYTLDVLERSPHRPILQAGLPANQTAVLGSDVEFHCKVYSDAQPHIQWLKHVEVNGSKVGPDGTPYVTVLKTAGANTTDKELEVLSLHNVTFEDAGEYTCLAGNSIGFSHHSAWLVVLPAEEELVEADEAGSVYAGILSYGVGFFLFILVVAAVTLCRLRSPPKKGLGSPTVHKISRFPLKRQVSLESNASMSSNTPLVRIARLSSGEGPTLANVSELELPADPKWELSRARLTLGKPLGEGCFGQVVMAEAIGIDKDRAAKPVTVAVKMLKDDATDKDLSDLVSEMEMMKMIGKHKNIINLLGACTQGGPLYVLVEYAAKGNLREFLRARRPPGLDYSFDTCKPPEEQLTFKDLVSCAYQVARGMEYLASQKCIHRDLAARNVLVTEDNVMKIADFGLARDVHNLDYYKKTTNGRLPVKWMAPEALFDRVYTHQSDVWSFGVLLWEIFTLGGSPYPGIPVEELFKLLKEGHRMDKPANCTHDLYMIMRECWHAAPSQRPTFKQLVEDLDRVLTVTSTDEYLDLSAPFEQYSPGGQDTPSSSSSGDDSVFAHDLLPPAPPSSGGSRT

Point of comparison: FSPCDYQPCLA [TNS1_Y798_Y796C_YF], phosphorylation enrichment 1.58. Against it:
- DYYDLYGGKKF [PTPN11_Y66_E69K] — higher, 9.68
- LGGAMYYLEAE [PKHD1_Y452] — higher, 2.46
- LLVVLCKFRCF [PSEN1_Y154_Y154C_YF] — lower, 0.999
- ISNATYKEIGL [FLT1_Y199] — lower, 0.438
- KLVDVYVNDAF [PGK1_Y161_G158V] — lower, 0.626
- VYSSDYFSFVL [USP24_Y2138] — higher, 7.74
- ACVARYIFKRL [LPCAT3_Y348_W344C] — lower, 0.553
- QYQEKYKQVEQ [HCN4_Y531] — lower, 1.3
- LEQQKYTVTID [IKBKB_Y199_V203I] — lower, 0.975
- RETSLYKACER [ASB2_Y162_P160S] — lower, 0.558
- KTTILYKLKLG [ARF1_Y35] — lower, 0.688
- MQMEEYRGWVE [BTNL2_Y91] — lower, 0.599
- GNHVSYFQSDG [CACNA1C_Y1757_YF] — lower, 0.488
- PDSVDYRKKGY [CTSK_Y121] — lower, 0.661
- SISFDYCRVPM [BST2_Y8_T4I_YF] — lower, 1.39
- VPLLEYYWDIF [CDAN1_Y712_R714W] — higher, 6.87
- KWTVDYLSQVG [TYW5_Y48] — lower, 0.63
- LARDMYDKEFF [MET_Y1230_YF] — lower, 0.596
- QFNMQYSSSAA [ERBB2IP_Y981_I979M_YF] — lower, 0.674
- QEGPEYWDQQT [HLA-A_Y83_E87Q] — lower, 1.21
- SEDSEYFKAFE [CASQ2_Y178_YF] — lower, 0.882
- FADIAYIFRHG [PAH_Y166_N167I_YF] — lower, 0.626
- CTTTHYNFMCN [TP53_Y234_I232T_YF] — lower, 0.557
- SNPAFYVLEGV [INPPL1_Y987_N982S_YF] — lower, 0.63
- IHFPPYTDWNQ [ALDH3B2_Y365_YF] — lower, 0.685
- GVRFIYTIDGS [DCX_Y105_YF] — lower, 0.843
- MDNQEYKDAFT [BRDT_Y331_K336T_YF] — lower, 0.802
- NNRVFYGNSDR [RS1_Y177] — lower, 0.411
- ALTDNYMYLVI [HAGH_Y61] — higher, 6.43
- SVTCTYSPALH [TP53_Y126_N131H] — lower, 0.724
- EVKEAYMGSVL [ACAT1_Y90_N93S] — lower, 0.527
- QSPQLYKQLCI [DARS1_Y253_M256L] — lower, 1.05

Target: FGFR1 (UniProt P11362)
Experiment: as above

FGFR1, sequence (P11362 whole entry, looked up): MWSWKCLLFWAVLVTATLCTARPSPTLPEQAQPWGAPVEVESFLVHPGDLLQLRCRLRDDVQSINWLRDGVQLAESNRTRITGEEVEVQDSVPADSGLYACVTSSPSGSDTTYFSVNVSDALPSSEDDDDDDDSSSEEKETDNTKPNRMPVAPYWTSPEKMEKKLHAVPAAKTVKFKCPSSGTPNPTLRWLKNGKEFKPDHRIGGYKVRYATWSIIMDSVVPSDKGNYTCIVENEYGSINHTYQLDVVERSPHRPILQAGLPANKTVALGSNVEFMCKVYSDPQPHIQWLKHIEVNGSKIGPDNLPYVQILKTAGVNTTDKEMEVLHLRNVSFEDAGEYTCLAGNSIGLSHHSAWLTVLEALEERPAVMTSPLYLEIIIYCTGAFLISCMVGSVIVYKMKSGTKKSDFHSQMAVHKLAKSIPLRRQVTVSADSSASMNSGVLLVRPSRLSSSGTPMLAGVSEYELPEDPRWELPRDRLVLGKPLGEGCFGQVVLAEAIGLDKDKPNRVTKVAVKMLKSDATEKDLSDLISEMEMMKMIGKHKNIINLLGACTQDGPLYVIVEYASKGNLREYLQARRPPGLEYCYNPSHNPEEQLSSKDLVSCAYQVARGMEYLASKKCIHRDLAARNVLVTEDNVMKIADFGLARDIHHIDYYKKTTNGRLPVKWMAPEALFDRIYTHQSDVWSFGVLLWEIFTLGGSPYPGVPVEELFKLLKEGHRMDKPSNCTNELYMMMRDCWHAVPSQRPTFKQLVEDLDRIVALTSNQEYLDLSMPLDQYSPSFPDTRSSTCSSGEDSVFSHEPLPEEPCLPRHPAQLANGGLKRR

Point of comparison: QYQEKYKQVEQ [HCN4_Y531], phosphorylation enrichment 1.17. Against it:
- DYYDLYGGKKF [PTPN11_Y66_E69K] — higher, 11.5
- LGGAMYYLEAE [PKHD1_Y452] — higher, 2.22
- LLVVLCKFRCF [PSEN1_Y154_Y154C_YF] — lower, 0.648
- ISNATYKEIGL [FLT1_Y199] — lower, 0.446
- KLVDVYVNDAF [PGK1_Y161_G158V] — lower, 0.635
- VYSSDYFSFVL [USP24_Y2138] — higher, 9.06
- ACVARYIFKRL [LPCAT3_Y348_W344C] — lower, 0.502
- LEQQKYTVTID [IKBKB_Y199_V203I] — lower, 0.75
- RETSLYKACER [ASB2_Y162_P160S] — lower, 0.548
- KTTILYKLKLG [ARF1_Y35] — lower, 0.404
- MQMEEYRGWVE [BTNL2_Y91] — lower, 0.488
- GNHVSYFQSDG [CACNA1C_Y1757_YF] — lower, 0.495
- PDSVDYRKKGY [CTSK_Y121] — lower, 1.06
- SISFDYCRVPM [BST2_Y8_T4I_YF] — higher, 1.43
- VPLLEYYWDIF [CDAN1_Y712_R714W] — higher, 7.97
- KWTVDYLSQVG [TYW5_Y48] — lower, 0.605
- LARDMYDKEFF [MET_Y1230_YF] — lower, 0.517
- QFNMQYSSSAA [ERBB2IP_Y981_I979M_YF] — lower, 0.558
- QEGPEYWDQQT [HLA-A_Y83_E87Q] — lower, 1.01
- SEDSEYFKAFE [CASQ2_Y178_YF] — lower, 0.608
- FADIAYIFRHG [PAH_Y166_N167I_YF] — lower, 0.637
- CTTTHYNFMCN [TP53_Y234_I232T_YF] — lower, 0.403
- SNPAFYVLEGV [INPPL1_Y987_N982S_YF] — lower, 0.509
- IHFPPYTDWNQ [ALDH3B2_Y365_YF] — lower, 0.659
- GVRFIYTIDGS [DCX_Y105_YF] — lower, 0.546
- FSPCDYQPCLA [TNS1_Y798_Y796C_YF] — higher, 2.38
- MDNQEYKDAFT [BRDT_Y331_K336T_YF] — lower, 0.539
- NNRVFYGNSDR [RS1_Y177] — lower, 0.375
- ALTDNYMYLVI [HAGH_Y61] — higher, 8.82
- SVTCTYSPALH [TP53_Y126_N131H] — lower, 0.487
- EVKEAYMGSVL [ACAT1_Y90_N93S] — lower, 0.407
- QSPQLYKQLCI [DARS1_Y253_M256L] — lower, 0.653

Target: Hck (UniProt P08631)
Experiment: as above

Hck, sequence (P08631 whole entry, looked up): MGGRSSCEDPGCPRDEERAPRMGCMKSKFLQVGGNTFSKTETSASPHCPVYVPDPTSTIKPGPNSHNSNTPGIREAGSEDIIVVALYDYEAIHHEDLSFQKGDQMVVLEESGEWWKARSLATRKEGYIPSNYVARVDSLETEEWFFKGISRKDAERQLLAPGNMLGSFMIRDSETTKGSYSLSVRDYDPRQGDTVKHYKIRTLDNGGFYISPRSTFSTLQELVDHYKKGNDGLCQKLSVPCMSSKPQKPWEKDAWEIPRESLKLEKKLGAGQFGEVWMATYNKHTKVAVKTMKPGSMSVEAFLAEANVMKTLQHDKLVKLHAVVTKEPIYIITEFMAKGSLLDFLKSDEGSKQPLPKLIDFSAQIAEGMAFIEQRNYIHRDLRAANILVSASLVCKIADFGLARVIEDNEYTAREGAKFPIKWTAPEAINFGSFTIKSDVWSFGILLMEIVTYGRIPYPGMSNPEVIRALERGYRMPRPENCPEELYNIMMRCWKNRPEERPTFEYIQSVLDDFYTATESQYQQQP

Point of comparison: FSPCDYQPCLA [TNS1_Y798_Y796C_YF], phosphorylation enrichment 0.659. Against it:
- DYYDLYGGKKF [PTPN11_Y66_E69K] — higher, 5.9
- LGGAMYYLEAE [PKHD1_Y452] — higher, 1.4
- LLVVLCKFRCF [PSEN1_Y154_Y154C_YF] — higher, 0.887
- ISNATYKEIGL [FLT1_Y199] — lower, 0.485
- KLVDVYVNDAF [PGK1_Y161_G158V] — lower, 0.554
- VYSSDYFSFVL [USP24_Y2138] — higher, 1.95
- ACVARYIFKRL [LPCAT3_Y348_W344C] — lower, 0.426
- QYQEKYKQVEQ [HCN4_Y531] — lower, 0.579
- LEQQKYTVTID [IKBKB_Y199_V203I] — higher, 0.682
- RETSLYKACER [ASB2_Y162_P160S] — higher, 0.9
- KTTILYKLKLG [ARF1_Y35] — lower, 0.401
- MQMEEYRGWVE [BTNL2_Y91] — lower, 0.464
- GNHVSYFQSDG [CACNA1C_Y1757_YF] — lower, 0.445
- PDSVDYRKKGY [CTSK_Y121] — higher, 0.78
- SISFDYCRVPM [BST2_Y8_T4I_YF] — lower, 0.546
- VPLLEYYWDIF [CDAN1_Y712_R714W] — higher, 0.813
- KWTVDYLSQVG [TYW5_Y48] — lower, 0.462
- LARDMYDKEFF [MET_Y1230_YF] — lower, 0.539
- QFNMQYSSSAA [ERBB2IP_Y981_I979M_YF] — lower, 0.47
- QEGPEYWDQQT [HLA-A_Y83_E87Q] — lower, 0.58
- SEDSEYFKAFE [CASQ2_Y178_YF] — lower, 0.582
- FADIAYIFRHG [PAH_Y166_N167I_YF] — lower, 0.449
- CTTTHYNFMCN [TP53_Y234_I232T_YF] — lower, 0.469
- SNPAFYVLEGV [INPPL1_Y987_N982S_YF] — lower, 0.441
- IHFPPYTDWNQ [ALDH3B2_Y365_YF] — lower, 0.519
- GVRFIYTIDGS [DCX_Y105_YF] — higher, 0.674
- MDNQEYKDAFT [BRDT_Y331_K336T_YF] — lower, 0.488
- NNRVFYGNSDR [RS1_Y177] — lower, 0.337
- ALTDNYMYLVI [HAGH_Y61] — higher, 1.34
- SVTCTYSPALH [TP53_Y126_N131H] — lower, 0.556
- EVKEAYMGSVL [ACAT1_Y90_N93S] — lower, 0.447
- QSPQLYKQLCI [DARS1_Y253_M256L] — higher, 0.706

Test system: c-Src
Experiment: as above

Point of comparison: FSPCDYQPCLA [TNS1_Y798_Y796C_YF], phosphorylation enrichment 1.42. Against it:
- DYYDLYGGKKF [PTPN11_Y66_E69K] — higher, 3.05
- LGGAMYYLEAE [PKHD1_Y452] — higher, 2.14
- LLVVLCKFRCF [PSEN1_Y154_Y154C_YF] — higher, 1.48
- ISNATYKEIGL [FLT1_Y199] — lower, 0.366
- KLVDVYVNDAF [PGK1_Y161_G158V] — lower, 0.435
- VYSSDYFSFVL [USP24_Y2138] — higher, 4.61
- ACVARYIFKRL [LPCAT3_Y348_W344C] — lower, 0.545
- QYQEKYKQVEQ [HCN4_Y531] — lower, 0.491
- LEQQKYTVTID [IKBKB_Y199_V203I] — lower, 0.569
- RETSLYKACER [ASB2_Y162_P160S] — lower, 0.939
- KTTILYKLKLG [ARF1_Y35] — lower, 0.336
- MQMEEYRGWVE [BTNL2_Y91] — lower, 0.553
- GNHVSYFQSDG [CACNA1C_Y1757_YF] — lower, 0.42
- PDSVDYRKKGY [CTSK_Y121] — lower, 0.905
- SISFDYCRVPM [BST2_Y8_T4I_YF] — lower, 0.528
- VPLLEYYWDIF [CDAN1_Y712_R714W] — higher, 1.67
- KWTVDYLSQVG [TYW5_Y48] — lower, 0.466
- LARDMYDKEFF [MET_Y1230_YF] — lower, 0.382
- QFNMQYSSSAA [ERBB2IP_Y981_I979M_YF] — lower, 0.346
- QEGPEYWDQQT [HLA-A_Y83_E87Q] — lower, 0.937
- SEDSEYFKAFE [CASQ2_Y178_YF] — lower, 0.651
- FADIAYIFRHG [PAH_Y166_N167I_YF] — lower, 0.415
- CTTTHYNFMCN [TP53_Y234_I232T_YF] — lower, 0.375
- SNPAFYVLEGV [INPPL1_Y987_N982S_YF] — lower, 0.732
- IHFPPYTDWNQ [ALDH3B2_Y365_YF] — lower, 0.52
- GVRFIYTIDGS [DCX_Y105_YF] — lower, 1.01
- MDNQEYKDAFT [BRDT_Y331_K336T_YF] — lower, 0.458
- NNRVFYGNSDR [RS1_Y177] — lower, 0.414
- ALTDNYMYLVI [HAGH_Y61] — lower, 1.03
- SVTCTYSPALH [TP53_Y126_N131H] — lower, 0.741
- EVKEAYMGSVL [ACAT1_Y90_N93S] — lower, 0.592
- QSPQLYKQLCI [DARS1_Y253_M256L] — lower, 0.53
